140 substances from the supplement of paper PMC12042874 can be followed below.

± gives the uncertainty stated by the source.

This data set in a line: amyloid nucleation score (Sup35N fusion, yeast selection) (log enrichment); library NNK1; higher = more nucleation; inactive = no reads after selection. In outline:
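For the nucleation score, DiMSum gave the log enrichment of output over input reads, centred on the mode score of non-aggregating sequences. Psi-negative yeast expressing Sup35N fused to peptides of 20 random codons were induced with 100 μM copper sulfate for 24 hours and grown 7 days at 30°C on medium lacking adenine and uracil. Input and output plasmid inserts were Illumina-sequenced, and sequences with under 100 input reads were excluded.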
On to RRTTSMERYCR, for which the amyloid nucleation score came out at 0.291 ± 0.43.

The substance RRWALRYINSATLFFLKVIG registered an amyloid nucleation score of -0.661 ± 0.93.

In turn, RRWFYLGAFVYKSNTIDVGV had an amyloid nucleation score of -0.214 ± 0.35.

RRYCKLLVWRQLTSYHGRQA displayed an amyloid nucleation score of 0.527 ± 0.49.

In the case of RRYRSWGGV, the amyloid nucleation score is -0.267 ± 0.35.

RSADTLVEKNLIYGRWVRKS: the amyloid nucleation score came out at 0.93 ± 1.

Take RSCELGFDPVKKFFRIRIWG: the amyloid nucleation score was -0.006 ± 0.47.

Regarding RSDNSCRRLLEDWRSWRRAV, the amyloid nucleation score result is “inactive”.

Substance RSELI had an amyloid nucleation score of -0.211 ± 0.36.

In turn, RSFDLRSSTTLERLFFHMCA displayed an amyloid nucleation score of -0.493 ± 0.88.

Consider RSGLCFMCSFEKSVSSR, for which the amyloid nucleation score was found to be 0.255 ± 0.3.

Regarding RSHGKAEFEHVGLKFIAG, the amyloid nucleation score was -0.903 ± 1.7.

Substance RSICWKSFRRIFFDRW registered an amyloid nucleation score of 0.19 ± 0.85.

In the case of RSIFSWSTR, the amyloid nucleation score is 0.641 ± 0.42.

On to RSIPSMEVSVMK, for which the amyloid nucleation score was -0.805 ± 0.73.

Substance RSLCHAQRFGWMC showed an amyloid nucleation score of -1.7 ± 1.

Substance RSNNSFCIPLSFMCYVYQAT came in with an amyloid nucleation score of -0.172 ± 1.6.

As for RSSMYKYV, the amyloid nucleation score stood at 0.523 ± 0.26.

On to RSSRAPWRSSCGGMF, for which the amyloid nucleation score is -0.494 ± 0.48.

On to RSVAHSYT, for which the amyloid nucleation score came out at 0.661 ± 0.54.

In turn, RSVRLMNRVSGWNMWWKDGT had an amyloid nucleation score of -0.535 ± 1.2.

Substance RSYSSLSR displayed an amyloid nucleation score of 0.792 ± 0.58.

On to RTGRAYLWGSWSLEHHNLGG, for which the amyloid nucleation score result is “inactive”.

RTKCKASISNIPTRWYDP: the amyloid nucleation score is -0.469 ± 1.2.

The substance RTNSSSVCSILKGLSQ had an amyloid nucleation score of -0.535 ± 1.1.

With RTPCLSESGPFSGFQHPGDI, the amyloid nucleation score is -0.66 ± 1.2.

Turning to RTSSIMSFPQCSCYSRRGVL, the amyloid nucleation score is 1.73 ± 0.33.

Consider RVDTL, for which the amyloid nucleation score came out at 0.694 ± 1.1.

The substance RVDTLYKVHLSKIRPSGGST displayed an amyloid nucleation score of -0.096 ± 0.75.

RVFRASNDR showed an amyloid nucleation score of 0.241 ± 1.1.

RVIAYKANPVNTFSYPVWAE registered an amyloid nucleation score of -0.133 ± 0.44.

Regarding RVLCICFEYINHRAGGSKSF, the amyloid nucleation score is -0.08 ± 0.95.

RVPCCGSYKGVFYEFTFSRG gave an amyloid nucleation score of 0.957 ± 0.49.

RVSCFRTRDRIFGVFTQSQV returned an amyloid nucleation score of -0.314 ± 1.2.

As for RVSRFELAIVSVEGSYWVPE, the amyloid nucleation score came to 0.607 ± 0.36.

RVVVCRWVDRYGIAASGAIT yielded an amyloid nucleation score of 0.643 ± 0.54.

Consider RVWYGFYCELITTPRFASGV, for which the amyloid nucleation score was -0.322 ± 1.7.

In the case of RWAWVDYNLCRVCLTKYS, the amyloid nucleation score was -0.161 ± 0.58.

RWFRNAIGGIL yielded an amyloid nucleation score of -0.586 ± 0.59.

Substance RWLPPLRVRIRDHTHIITDK registered an amyloid nucleation score of 2.22 ± 0.17.

In turn, RWMPFISLSVNLTGNYLIRL had an amyloid nucleation score of 2.25 ± 0.27.

As for RWNRSSDTCLCLHSMMLT, the amyloid nucleation score was -0.518 ± 1.1.

For RWPRCYYNLGKCTDISLTWS, the amyloid nucleation score amounted to 2.56 ± 0.18.

Turning to RWSAFSVYAWGAYKLRC, the amyloid nucleation score was found to be 2.41 ± 0.11.

In turn, RYARLMYASACCSSC returned an amyloid nucleation score of -0.404 ± 0.52.

Substance RYCHVLIVIAQANQSFKDVQ showed an amyloid nucleation score of 7.725 ± 0.056.

Substance RYCYRGHMFLFQTSLFKCSS gave an amyloid nucleation score of -0.354 ± 0.83.

As to RYHSPEYTARTLMG, the amyloid nucleation score was determined as 0.264 ± 0.44.

The substance RYISYAKCRNYNGLIMYYLY gave an amyloid nucleation score of 2.52 ± 0.11.

With RYRWRL, the amyloid nucleation score entry is “inactive”.

For RYRWTSLVFLGMTQH, the amyloid nucleation score was 0.75 ± 0.38.

In the case of RYSCY, the amyloid nucleation score was determined as 0.152 ± 0.6.

Consider RYSSVKLEMKSQVVIELTLI, for which the amyloid nucleation score came out at 1.09 ± 0.76.

RYVETNSGAE: the amyloid nucleation score was found to be 0.669 ± 0.43.

For RYYCFPTQLIHLTTT, the amyloid nucleation score was -0.755 ± 0.55.

Consider RYYLMVFFKWIFEIWKMVLK, for which the amyloid nucleation score is -0.646 ± 0.28.

Substance RYYMGTIWILGEFGSLFWMM gave an amyloid nucleation score of 0.06 ± 0.39.

Substance SACFVARSVVCDWGCAGYMF registered an amyloid nucleation score of 2.67 ± 0.28.

On to SACLQVWE, for which the amyloid nucleation score was 0.284 ± 0.4.

Substance SACSESSVIWTNFH had an amyloid nucleation score of 0.292 ± 0.39.

With SALILVFFYWA, the amyloid nucleation score came out at 1.31 ± 0.3.

The substance SALLEQRLSSGLDVAISLRI gave an amyloid nucleation score of -0.368 ± 0.9.

In the case of SANDFKMWGMVDKFGVMVLL, the amyloid nucleation score entry is “inactive”.

The substance SAPMVFESDPREFAAGMSRL came in with an amyloid nucleation score of -0.53 ± 0.39.

With SARRRRYGEAGSLGHELQWT, the amyloid nucleation score is 0.675 ± 0.78.

Take SATTIFFRYSKIREFRLVFG: the amyloid nucleation score result was “inactive”.

Turning to SAVTDQLMV, the amyloid nucleation score stood at 0.119 ± 0.45.

SAWSGR: the amyloid nucleation score was found to be 0.104 ± 0.3.

The substance SAYSILSTMFIYFVKSQGTD showed an amyloid nucleation score of 3.38 ± 0.058.

As for SCACYGWSVYSLGNANRVLS, the amyloid nucleation score was determined as 0.465 ± 0.69.

As for SCDMYQYEIV, the amyloid nucleation score result is “inactive”.

SCGNVGQRVVNIQYVGNSRF had an amyloid nucleation score of 6.34 ± 0.077.

SCGVLVSLFLYPKLNFGFYL came in with an amyloid nucleation score of 0.419 ± 0.4.

SCIVLYMKGSGISCTNYTYC showed an amyloid nucleation score of 6.094 ± 0.054.

On to SCKYSAQNLWHLFYRNSLSS, for which the amyloid nucleation score was -2.29 ± 2.1.

As to SCLAIRTSYCNEELSIESMQ, the amyloid nucleation score was -0.8 ± 0.55.

In turn, SCLCFLNPTNFEKLLISFVP had an amyloid nucleation score of 0.725 ± 0.53.

In the case of SCNFLYGRRLFL, the amyloid nucleation score is -0.127 ± 0.55.

SCRSLDAMDKSWS showed an amyloid nucleation score of 1.5 ± 0.52.

In turn, SCSGSRMRELAAVYTVIIEY returned an amyloid nucleation score of -1.04 ± 1.1.

For SCTCVQHPDGSYAFEIGAAN, the amyloid nucleation score came out at 0.009 ± 0.96.

Substance SCVFLGSWWRCGWMPGSHVP registered an amyloid nucleation score of 1.93 ± 0.29.

In the case of SCVSSLYCH, the amyloid nucleation score is 0.057 ± 0.65.

SCVYNWFIKVLPKVSTMSGD displayed an amyloid nucleation score of 0.41 ± 0.52.

As to SCYVWDCENGSTLFIFVARR, the amyloid nucleation score entry was “inactive”.

Consider SDEMVW, for which the amyloid nucleation score is 2.65 ± 0.11.

In the case of SDFNNTFIYSGEKQVLISTC, the amyloid nucleation score was -0.147 ± 0.34.

Substance SDFRMTGLLTWYRSI displayed an amyloid nucleation score of -0.228 ± 0.51.

Consider SDHRTW, for which the amyloid nucleation score was found to be 0.743 ± 0.42.

In turn, SDKEVVSLQEVHTQSEGSEG yielded an amyloid nucleation score of 0.174 ± 0.27.

Consider SDPCKCTYCSYLSLDITLYA, for which the amyloid nucleation score was found to be 0.05 ± 0.23.

SDRDVVRVIYNSVGGTVWFG showed an amyloid nucleation score of 1.07 ± 0.19.

In the case of SDRKEA, the amyloid nucleation score was -0.444 ± 0.69.

For the substance SDRQVSSSRTYKHSTTSLGC, the amyloid nucleation score entry is “inactive”.

In the case of SDSGCEGESCQNRLISVGLL, the amyloid nucleation score is -0.084 ± 0.46.

SDVVGGYWEDKTSSYGSRLM yielded an amyloid nucleation score of 0.423 ± 0.52.

Substance SDYTYAFPCMRGWCWYFAVS came in with an amyloid nucleation score of -0.691 ± 1.7.

As for SEGMCIKLPVALNYSYVHLG, the amyloid nucleation score turned out to be 3.36 ± 0.088.

Take SELRSWFL: the amyloid nucleation score was -0.109 ± 1.2.

In the case of SEMGINQKFLLGVQDTLHRY, the amyloid nucleation score is -1.45 ± 1.

SESSYGSSSRTTESSVCVSG: the amyloid nucleation score is -0.008 ± 0.52.

In turn, SETFKRE showed an amyloid nucleation score of -0.328 ± 0.66.

SETYVLLKNPSDNIMQKWCV yielded an amyloid nucleation score of 0.147 ± 0.79.

SEVQAPHIRCINIRALYLRN registered an amyloid nucleation score of 2.08 ± 0.39.

In turn, SEWDFGDCENFKVSYLVVTQ returned an amyloid nucleation score of -0.408 ± 0.4.

Turning to SEYMLRSNIVFPRWIS, the amyloid nucleation score came out at 0.35 ± 0.71.

Consider SFAII, for which the amyloid nucleation score was found to be 0.91 ± 0.3.

In the case of SFCPSMSNYTCIFPSTNLTY, the amyloid nucleation score is 7.033 ± 0.053.

SFDNCLFVVVAAAIVNQPVC showed an amyloid nucleation score of 5.83 ± 0.09.

SFFFSRVGSLFCLRFYDVFG: the amyloid nucleation score was -0.858 ± 1.3.

For SFFRFVQNVSRSAGVSDSAM, the amyloid nucleation score was -0.508 ± 0.42.

SFGKVPFDLPKNFPRVSSVT had an amyloid nucleation score of -0.276 ± 0.33.

In turn, SFIMSNS yielded an amyloid nucleation score of 0.075 ± 0.41.

Substance SFISKLLNYVVAFCVVCDEI registered an amyloid nucleation score of 0.127 ± 0.5.

In turn, SFLCAFICHYTDVFVHLARS registered an amyloid nucleation score of 1.49 ± 0.54.

Substance SFLCCRVFLKSRRCRCGFMQ gave an amyloid nucleation score of 6.01 ± 0.046.

SFLDCLRCCKCAGMR showed an amyloid nucleation score of 1.5 ± 0.18.

With SFMSGSFEWPRSYRALGFKA, the amyloid nucleation score was -0.719 ± 1.2.

Regarding SFMVFYNLVCLHMMSNFVAL, the amyloid nucleation score was found to be 0.377 ± 0.68.

As to SFNNMANMAYYRVRGVLVL, the amyloid nucleation score is -0.438 ± 0.6.

Take SFNVNLGSHRDVMIVFSF: the amyloid nucleation score is 6.24 ± 0.064.

For the substance SFRSLFVFYDN, the amyloid nucleation score entry was “inactive”.

SFSEICWVVGHYMNGFSQMR yielded an amyloid nucleation score of 1.89 ± 0.47.

Regarding SFSVVCRLKRAFGLAVIVRR, the amyloid nucleation score stood at 0.184 ± 1.2.

For SFVFGHIVKK, the amyloid nucleation score worked out at 2.72 ± 0.086.

With SFVIFCRKGNWEWDD, the amyloid nucleation score is -0.671 ± 0.37.

In the case of SFVIYSKKCKNGSVNTVACS, the amyloid nucleation score is 0.142 ± 0.62.

SFVVGNGYMVGWWFITAHVA: the amyloid nucleation score was found to be 0.499 ± 0.41.

Substance SFWNSLV had an amyloid nucleation score of 0.468 ± 1.2.

SFYYWHPIALVWYGGARYKC gave an amyloid nucleation score of 1.35 ± 0.43.

For SGFGYSYCTLHCRTFWCLRP, the amyloid nucleation score amounted to 0.972 ± 0.3.

As for SGGPWVNCNFNT, the amyloid nucleation score was 0.494 ± 0.47.

The substance SGIEAFNRIIGVCCVLEAGR came in with an amyloid nucleation score of 3.58 ± 0.19.

With SGIGSMWSQLKDSV, the amyloid nucleation score came to 0.136 ± 0.59.

In the case of SGKNRYIVSSCSWLWAREDL, the amyloid nucleation score was 0.424 ± 1.

The substance SGLLVITFVNEFLYKNVYPL came in with an amyloid nucleation score of 1.95 ± 0.25.

With SGMCTYL, the amyloid nucleation score is 0.513 ± 0.33.

Consider SGNCQSRFVVNGNHKC, for which the amyloid nucleation score came to 0.371 ± 0.5.

In turn, SGNSSFIVILNKRTFRLCRY gave an amyloid nucleation score of 1.41 ± 0.18.

On to SGQIQFIMIR, for which the amyloid nucleation score came to 0.727 ± 0.67.
